Test results: PMC6591361, “Recombinant production of human α2-macroglobulin variants and interaction studies with recombinant G-related α2-macroglobulin binding protein and latent transforming growth factor-β2” (Scientific Reports, 2019)

T1: methylamine-induced authentic human α2-macroglobulin (human, UniProt P01023 24-1474, thioester bond opened by methylamine, producing a free cysteine)
T1 construct: human α2-macroglobulin, UniProt P01023; plasma protein as m1, induced form; Tetramer (684.1 kDa by SEC-MALLS); also called induced hα2M; induced authentic hα2M
T1 sequence (looked up): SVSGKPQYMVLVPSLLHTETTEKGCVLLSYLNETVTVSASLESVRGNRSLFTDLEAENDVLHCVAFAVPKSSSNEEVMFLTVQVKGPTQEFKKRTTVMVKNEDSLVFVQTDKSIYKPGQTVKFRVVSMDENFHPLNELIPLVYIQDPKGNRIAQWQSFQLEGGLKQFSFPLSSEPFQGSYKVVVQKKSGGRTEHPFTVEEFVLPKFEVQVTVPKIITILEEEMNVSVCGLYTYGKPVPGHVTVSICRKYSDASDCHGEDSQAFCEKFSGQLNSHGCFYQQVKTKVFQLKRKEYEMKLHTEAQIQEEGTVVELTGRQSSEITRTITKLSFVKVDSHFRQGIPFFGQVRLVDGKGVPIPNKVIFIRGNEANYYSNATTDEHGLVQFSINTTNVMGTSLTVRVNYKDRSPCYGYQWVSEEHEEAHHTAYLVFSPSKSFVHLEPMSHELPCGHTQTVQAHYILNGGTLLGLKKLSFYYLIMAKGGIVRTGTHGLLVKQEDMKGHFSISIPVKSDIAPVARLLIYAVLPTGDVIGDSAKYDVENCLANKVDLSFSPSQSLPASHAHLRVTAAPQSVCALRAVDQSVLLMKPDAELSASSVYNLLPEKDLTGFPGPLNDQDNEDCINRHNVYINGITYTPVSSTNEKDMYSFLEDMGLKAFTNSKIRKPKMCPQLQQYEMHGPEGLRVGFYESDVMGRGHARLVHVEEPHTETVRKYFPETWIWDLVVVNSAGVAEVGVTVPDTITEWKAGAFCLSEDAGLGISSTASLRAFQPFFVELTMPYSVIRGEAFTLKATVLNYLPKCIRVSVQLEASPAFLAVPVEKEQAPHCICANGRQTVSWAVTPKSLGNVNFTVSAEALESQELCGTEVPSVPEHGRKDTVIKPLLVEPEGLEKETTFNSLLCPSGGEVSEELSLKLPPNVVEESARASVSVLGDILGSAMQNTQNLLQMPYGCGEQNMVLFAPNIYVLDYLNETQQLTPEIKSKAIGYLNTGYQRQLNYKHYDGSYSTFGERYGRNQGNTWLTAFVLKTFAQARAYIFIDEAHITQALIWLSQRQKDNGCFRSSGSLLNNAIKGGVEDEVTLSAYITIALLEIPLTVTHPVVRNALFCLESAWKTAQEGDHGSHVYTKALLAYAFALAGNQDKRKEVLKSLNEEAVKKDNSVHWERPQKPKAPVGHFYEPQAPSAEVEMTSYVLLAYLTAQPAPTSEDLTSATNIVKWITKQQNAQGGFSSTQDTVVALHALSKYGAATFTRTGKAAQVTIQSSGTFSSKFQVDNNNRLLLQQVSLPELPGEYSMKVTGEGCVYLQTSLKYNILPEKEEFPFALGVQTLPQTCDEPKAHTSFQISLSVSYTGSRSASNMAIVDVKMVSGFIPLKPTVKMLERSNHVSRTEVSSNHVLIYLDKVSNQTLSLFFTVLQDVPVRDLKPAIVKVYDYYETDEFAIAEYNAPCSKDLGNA

T2: native authentic human α2-macroglobulin (human, UniProt P01023 24-1474, thioester bond intact (native form))
T2 construct: human α2-macroglobulin, UniProt P01023, 1,474-residue precursor; as secreted it lacks the signal peptide (recombinant constructs begin at S24); Tetramer (680.6 kDa by SEC-MALLS); glycosylated; also called hα2M; native hα2M; source: purified from human blood plasma of individual donors (PEG 4,000 precipitation, zinc-chelating resin, IEC, SEC)
T2 sequence (looked up): T1 sequence (looked up)

B1: Strep-tagged G-related α2M-binding protein (GRAB), V34-N181 (domain or fragment)
chain: GAMVDSPIEQPRIIPNGGTLTNLLGNAPEKLALRNEERAIDELKKQAIEDKEATTAIEAASSDALEALADQTDALQSEEAAVVKADNAASDALEALADQTDALQSEEAEVVQSDNAASDAWEKAATPIALDVKKTKDTKPVVKKEERQNVN
notes: residues left at the N-terminus after TEV cleavage, from the cloning strategy; also called Strep-tagged GRAB; pCri-H6-TEV-GRAB-STREP; source: E. coli BL21 (DE3), purified (Streptactin XT, IEC, SEC); not shown: His6, N-terminal, cleaved; Strep-tag, C-terminal, kept
B2: G-related α2M-binding protein (GRAB), V34-N181, untagged (domain or fragment)
chain: B1 chain
notes: residues left at the N-terminus after TEV cleavage, from the cloning strategy; the theoretical mass of 15.8 kDa that it compares with fits the untagged form (surmise); also called pCri-H6-TEV-GRAB; source: E. coli BL21 (DE3), purified (Ni-NTA, TEV cleavage, reverse Ni-NTA, IEC, SEC); not shown: His6, N-terminal, cleaved

Legend:
Conditions in all cases: both partners purified
[1] = target: T1, methylamine-induced authentic human …; assay: SPR; as a1, affinity analysis: steady-state responses (Req) against analyte concentration, 1:1 model
[2] = target: T2, native authentic human α2-macroglobulin; assay: as above
[3] = target: T2, native authentic human α2-macroglobulin; assay: SPR; Strep-tagged GRAB (9.7 nM) captured on Streptactin XT on a CM5 chip; analytes injected in multicycle runs (4–600 nM authentic hα2M, 75–1,200 nM N-hα2M and C-hα2M); HBNS (10 mM HEPES, 150 mM sodium chloride, pH 7.4), 37 °C; kinetic fit, 1:1 Langmuir model
[4] = target: T1, methylamine-induced authentic human …; assay: SEC-MALS; SEC-MALLS, Superose 6 10/300, buffer J (20 mM sodium phosphate, 150 mM sodium chloride, pH 7.4), 25 °C; GRAB to authentic hα2M at a molar ratio of 4:1; triplicate
[5] = target: T2, native authentic human α2-macroglobulin; assay: as above

Row | Binder | Kd [1] | Kd [2] | Kd [3] | koff [3] | kon [3] | stoichiometry N [4] | stoichiometry N [5]
1 | B1 | 94.6 nM | 34.5 nM | 14.3 nM | 0.0019 s⁻¹ | 132000 M⁻¹ s⁻¹ |  | 
2 | B2 |  |  |  |  |  | 2 GRAB per hα2M tetramer | 1.7 GRAB per hα2M tetramer
